Among the data in paper PMC10786891, “Massively parallel profiling of RNA-targeting CRISPR-Cas13d” are Kd values, retold here.

The chains are these.
T1: EsCas13d, nuclease-dead (Eubacterium siraeum, UniProt B0MS50, R295A;H300A;R849A;H854A)
T1 sequence: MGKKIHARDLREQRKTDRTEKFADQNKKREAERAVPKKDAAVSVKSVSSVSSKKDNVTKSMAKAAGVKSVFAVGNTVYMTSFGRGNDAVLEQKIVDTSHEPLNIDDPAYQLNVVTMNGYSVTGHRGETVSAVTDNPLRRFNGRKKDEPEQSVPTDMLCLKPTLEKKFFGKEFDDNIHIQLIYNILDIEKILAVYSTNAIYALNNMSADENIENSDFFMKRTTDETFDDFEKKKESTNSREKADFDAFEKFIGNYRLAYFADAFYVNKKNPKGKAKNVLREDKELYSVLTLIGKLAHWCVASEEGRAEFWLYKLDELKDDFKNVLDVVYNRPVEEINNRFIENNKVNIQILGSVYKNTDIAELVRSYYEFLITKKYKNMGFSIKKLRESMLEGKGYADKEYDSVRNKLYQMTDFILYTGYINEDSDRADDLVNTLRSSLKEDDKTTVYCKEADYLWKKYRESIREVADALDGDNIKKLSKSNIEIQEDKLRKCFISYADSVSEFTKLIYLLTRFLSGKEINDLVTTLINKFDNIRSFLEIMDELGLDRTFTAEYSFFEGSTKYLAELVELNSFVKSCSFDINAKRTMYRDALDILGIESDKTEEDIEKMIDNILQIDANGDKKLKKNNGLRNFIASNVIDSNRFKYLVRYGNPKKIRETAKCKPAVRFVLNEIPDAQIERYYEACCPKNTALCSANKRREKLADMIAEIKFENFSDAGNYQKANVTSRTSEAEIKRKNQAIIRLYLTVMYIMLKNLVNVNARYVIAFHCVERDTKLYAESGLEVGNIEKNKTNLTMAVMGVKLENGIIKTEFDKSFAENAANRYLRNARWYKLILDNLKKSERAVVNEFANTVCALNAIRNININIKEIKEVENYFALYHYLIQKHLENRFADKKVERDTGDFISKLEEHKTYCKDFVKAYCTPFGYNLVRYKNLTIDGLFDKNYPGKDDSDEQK

B1: target 1 MT 5'PFS UAA 3'PFS AUC (mixed)
RNA 1: CACCCGUGCAAAAAUGCAGGGGUCUAAAACUGAGCGGAUAACCUCUCUAUGG
RNA 2: GGGAAUGGAUCCACAUCUACGAAUUCUAACCAUAGAGAGGUUAUCCGCUCAAUCAGAUCGGAAGAGCACACGU
B2: target 1 MT 5'PFS GCC 3'PFS UUA (mixed)
RNA 1: B1 RNA 1
RNA 2: B1 RNA 2 with U27G, A28C, A29C, A52U, C54A
B3: target 1 insG 3' of 22,insG 3' of 6 (mixed)
RNA 1: B1 RNA 1
RNA 2: GGGAAUGGAUCCACAUCUACGAAUUCGUACGCAUAGAGAGGUUAUCCGGCUCACCGAGAUCGGAAGAGCACACGU
B4: target 1 MT 5'PFS GCU 3'PFS AUA (mixed)
RNA 1: B1 RNA 1
RNA 2: B1 RNA 2 with U27G, A28C, A29U, C54A
B5: target 1 MT 5'PFS GCC 3'PFS UUG (mixed)
RNA 1: B1 RNA 1
RNA 2: B1 RNA 2 with U27G, A28C, A29C, A52U, C54G
B6: target 1 MT 5'PFS GCC 3'PFS CAG (mixed)
RNA 1: B1 RNA 1
RNA 2: B1 RNA 2 with U27G, A28C, A29C, A52C, U53A, C54G
B7: target 1 MT 5'PFS CAG 3'PFS UUG (mixed)
RNA 1: B1 RNA 1
RNA 2: B1 RNA 2 with U27C, A29G, A52U, C54G
B8: target 1 MT 5'PFS GAA 3'PFS CCG (mixed)
RNA 1: B1 RNA 1
RNA 2: B1 RNA 2 with U27G, A52C, U53C, C54G
B9: target 1 MT 5'PFS AGG 3'PFS CGU (mixed)
RNA 1: B1 RNA 1
RNA 2: B1 RNA 2 with U27A, A28G, A29G, A52C, U53G, C54U
B10: target 1 insU 3' of 14,insA 3' of 8 (mixed)
RNA 1: B1 RNA 1
RNA 2: GGGAAUGGAUCCACAUCUACGAAUUCGUACCAUAGAGAUGGUUAUACCGCUCACCGAGAUCGGAAGAGCACACGU
B11: target 1 C2U,G12C (mixed)
RNA 1: B1 RNA 1
RNA 2: B1 RNA 2 with U27G, A28U, G40C, C50U, A52C, U53C, C54G
B12: target 1 MT 5'PFS AGG 3'PFS CGG (mixed)
RNA 1: B1 RNA 1
RNA 2: B1 RNA 2 with U27A, A28G, A29G, A52C, U53G, C54G
B13: target 1 MT 5'PFS UCA 3'PFS ACG (mixed)
RNA 1: B1 RNA 1
RNA 2: B1 RNA 2 with A28C, U53C, C54G
B14: target 1 MT 5'PFS AGG 3'PFS CGC (mixed)
RNA 1: B1 RNA 1
RNA 2: B1 RNA 2 with U27A, A28G, A29G, A52C, U53G
B15: target 1 MT 5'PFS GAG 3'PFS UAG (mixed)
RNA 1: B1 RNA 1
RNA 2: B1 RNA 2 with U27G, A29G, A52U, U53A, C54G
B16: target 1 MT 5'PFS CUG 3'PFS CCG (mixed)
RNA 1: B1 RNA 1
RNA 2: B1 RNA 2 with U27C, A28U, A29G, A52C, U53C, C54G
B17: target 1 MT 5'PFS ACC 3'PFS UGU (mixed)
RNA 1: B1 RNA 1
RNA 2: B1 RNA 2 with U27A, A28C, A29C, A52U, U53G, C54U
B18: target 1 MT 5'PFS GAA 3'PFS CCU (mixed)
RNA 1: B1 RNA 1
RNA 2: B1 RNA 2 with U27G, A52C, U53C, C54U
B19: target 1 MT 5'PFS GAG 3'PFS UAC (mixed)
RNA 1: B1 RNA 1
RNA 2: B1 RNA 2 with U27G, A29G, A52U, U53A
B20: target 1 MT 5'PFS UGA 3'PFS ACG (mixed)
RNA 1: B1 RNA 1
RNA 2: B1 RNA 2 with A28G, U53C, C54G
B21: target 1 MT 5'PFS UCA 3'PFS ACU (mixed)
RNA 1: B1 RNA 1
RNA 2: B1 RNA 2 with A28C, U53C, C54U
B22: target 1 MT 5'PFS UUC 3'PFS CCU (mixed)
RNA 1: B1 RNA 1
RNA 2: B1 RNA 2 with A28U, A29C, A52C, U53C, C54U
B23: target 1 MT 5'PFS GGC 3'PFS CAU (mixed)
RNA 1: B1 RNA 1
RNA 2: B1 RNA 2 with U27G, A28G, A29C, A52C, U53A, C54U
B24: target 1 MT 5'PFS UAG 3'PFS AGG (mixed)
RNA 1: B1 RNA 1
RNA 2: B1 RNA 2 with A29G, U53G, C54G
B25: target 1 MT 5'PFS GAG 3'PFS UAA (mixed)
RNA 1: B1 RNA 1
RNA 2: B1 RNA 2 with U27G, A29G, A52U, U53A, C54A
B26: target 1 MT 5'PFS GCU 3'PFS AUU (mixed)
RNA 1: B1 RNA 1
RNA 2: B1 RNA 2 with U27G, A28C, A29U, C54U
B27: target 1 MT 5'PFS UCA 3'PFS ACA (mixed)
RNA 1: B1 RNA 1
RNA 2: B1 RNA 2 with A28C, U53C, C54A
B28: target 1 C4A,A9U (mixed)
RNA 1: B1 RNA 1
RNA 2: B1 RNA 2 with U27G, A28U, A43U, C48A, A52C, U53C, C54G
B29: target 1 MT 5'PFS GCC 3'PFS UUU (mixed)
RNA 1: B1 RNA 1
RNA 2: B1 RNA 2 with U27G, A28C, A29C, A52U, C54U
B30: target 1 MT 5'PFS CUG 3'PFS AAG (mixed)
RNA 1: B1 RNA 1
RNA 2: B1 RNA 2 with U27C, A28U, A29G, U53A, C54G
B31: target 1 MT 5'PFS GUU 3'PFS AUU (mixed)
RNA 1: B1 RNA 1
RNA 2: B1 RNA 2 with U27G, A28U, A29U, C54U
B32: target 1 MT 5'PFS GGC 3'PFS CAA (mixed)
RNA 1: B1 RNA 1
RNA 2: B1 RNA 2 with U27G, A28G, A29C, A52C, U53A, C54A
B33: target 1 MT 5'PFS UCA 3'PFS CGU (mixed)
RNA 1: B1 RNA 1
RNA 2: B1 RNA 2 with A28C, A52C, U53G, C54U
B34: target 1 MT 5'PFS GCC 3'PFS UUC (mixed)
RNA 1: B1 RNA 1
RNA 2: B1 RNA 2 with U27G, A28C, A29C, A52U
B35: target 1 MT 5'PFS GUU 3'PFS UUU (mixed)
RNA 1: B1 RNA 1
RNA 2: B1 RNA 2 with U27G, A28U, A29U, A52U, C54U
B36: target 1 MT 5'PFS AUG 3'PFS UGA (mixed)
RNA 1: B1 RNA 1
RNA 2: B1 RNA 2 with U27A, A28U, A29G, A52U, U53G, C54A
B37: target 1 MT 5'PFS GCA 3'PFS ACC (mixed)
RNA 1: B1 RNA 1
RNA 2: B1 RNA 2 with U27G, A28C, U53C
B38: target 1 MT 5'PFS CGC 3'PFS CCG (mixed)
RNA 1: B1 RNA 1
RNA 2: B1 RNA 2 with U27C, A28G, A29C, A52C, U53C, C54G

One may read the Kd as the concentration at which binding is half-saturated. A low value points to higher affinity.

Substitutions are numbered along the chain they refer to. In names and notes the source's numbering stands.

For the series, the target named is T1, EsCas13d, nuclease-dead. Description: crRNA (strand 1, pre-loaded); Mg2+; 40 mM Tris-HCl pH 7.5, 150 mM NaCl, 6 mM MgCl2, 1 mM DTT, 0.1% Tween-20, 0.2 mg/ml BSA; 25 C; 10 min per concentration, then washed. As to conditions: tags: His6-TwinStrep-SUMO cleaved; N-terminal SNAP kept (SNAP-Surface 488); label: 3' end held by stalled T7 RNA polymerase.
B1 displayed a Kd of 33 ± 10 nM.
Under B2 stands 12.5 ± 3.7 nM; under B3, 51 ± 10 nM.
The figure for B4 is 57 ± 16 nM; for B5 it is 8.2 ± 1.1 nM.
The figure for B6 is 44 ± 21 nM; for B7 it is 19.7 ± 3.55 nM.
B8 gave a Kd of 21 ± 5.5 nM.
Under B9 stands approximately 90 nM; under B10, 38.6 ± 3.2 nM; under B11, 7.1 ± 0.5 nM.
Under B12 stands 41 ± 11.5 nM; under B13, approximately 65 nM.
The figure for B14 is 44 ± 19 nM; for B15 it is 46.5 ± 15.5 nM.
Molecule B16 came in with a dissociation constant Kd of 3.05 ± 0.55 nM.
The figure for B17 is approximately 19 nM.
In the case of B18, the Kd is approximately 21 nM.
Under B19 stands approximately 60 nM; under B20, 110 ± 50 nM; under B21, 14 ± 4.5 nM.
Under B22 stands 66 ± 27 nM; under B23, 15.7 ± 5.5 nM.
B24 yielded a dissociation constant Kd of 65.5 ± 15 nM. Against the preceding molecule, the Kd is about 4.2-fold higher.
Regarding B25, the Kd turned out to be 28.5 ± 8 nM.
The figure for B26 is 76 ± 31 nM.
B27: binding was put at a Kd of 13.2 ± 3.35 nM.
The figure for B28 is 4.45 ± 0.25 nM; for B29 it is 9.4 ± 2 nM.
The figure for B30 is 12.4 ± 3.4 nM.
Under B31 stands 13.9 ± 2.3 nM.
In turn, B32 showed a Kd of approximately 34 nM.
B33 had an equilibrium dissociation constant (Kd) of 18.5 ± 6.5 nM.
On to B34, for which binding was characterised by a dissociation constant (Kd) of 17 ± 5.5 nM.
Under B35 stands 8.95 ± 0.95 nM.
B36 showed a Kd of 52 ± 19.5 nM.
The figure for B37 is approximately 32 nM.
The figure for B38 is 19 ± 7 nM.
